Assay results from the supplement of paper PMC9732359.
± gives the uncertainty stated by the source.

Assay: protein stability index of a GFP-peptide fusion (yeast GPS) (PSI 1-4); higher = more stable; sorted into four equal gates, so the index is relative within each strain
Procedure, shortened: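 Plasmids isolated from each sorting gate were PCR-amplified and Illumina-sequenced, and barcodes assigned the reads to strains. The gates, four of equal size, were set by GFP/Cherry fluorescence ratio on mid-log cultures in leucine-free medium. These cultures were yeast carrying a pooled library of tiled 17-residue yeast protein peptides fused downstream of GFP on a plasmid that also expresses Cherry. The protein stability index is the sum of every gate's read frequency times its gate number.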

Sequence | protein stability index (doa10∆) | protein stability index (pdr5∆) | protein stability index (san1∆) | protein stability index (ubr1∆)
KGDLRRGFIKSEGSGSS [RPC53] | 3.43 ± 0.14 | 3.37 ± 0.1 | 3.31 ± 0.07 | 3.48 ± 0.15
KGEEAKLDSKKTVPFQV [SSN3] | 3.27 ± 0.087 | 3.37 ± 0.055 | 3.2 ± 0.097 | 3.23 ± 0.066
KGEMKGSAITGPVGKEC [RPL23A] | 3.19 ± 0.065 | 2.98 ± 0.065 | 3 ± 0.051 | 3 ± 0.044
KGIDSVVRRRFRGNISQ [RPL32] | 2.82 ± 0.14 | 2.94 ± 0.26 |  | 2.89 ± 0.12
KGKTPKNAAESSYMGKH [PRP28] | 3.18 ± 0.12 | 3.22 ± 0.14 | 2.86 ± 0.16 | 3.33 ± 0.085
KGLIKVNGSPITLVEPE [RPS16A] | 3.09 ± 0.095 | 3.42 ± 0.13 | 3.06 ± 0.082 | 3.24 ± 0.11
KGLVSQQLDSFNQFVDY [RPB2] | 2.64 ± 0.077 | 2.52 ± 0.1 | 2.41 ± 0.078 | 2.6 ± 0.066
KHEEIDTKNLYVIKALQ [RPS10A] | 1.6 ± 0.085 | 2.02 ± 0.078 | 1.64 ± 0.12 | 1.46 ± 0.077
KHLWDQKSLAALKKSRS [RPC17] | 2.75 ± 0.12 | 2.97 ± 0.072 | 2.92 ± 0.083 | 2.81 ± 0.07
KIAHGTTTLAFRFQGGI [PRE2] | 3.03 ± 0.095 | 3.11 ± 0.073 | 2.84 ± 0.067 | 3.1 ± 0.069
KIDKPIRTQVNTGGESV [RGR1] | 2.4 ± 0.06 | 2.4 ± 0.044 | 2.32 ± 0.052 | 2.25 ± 0.036
KIDSHVVLSFSGLNADS [PRE6] | 1.8 ± 0.062 | 1.72 ± 0.069 | 2.48 ± 0.073 | 2.19 ± 0.054
KIESLAGGGESDSALIL [UBP6] | 3.25 ± 0.18 |  | 3.49 ± 0.11 | 3.12 ± 0.25
KIHQQLLFKARLQQQQA [GAL11] | 1.3 ± 0.088 | 1.26 ± 0.089 | 1.25 ± 0.15 | 1.33 ± 0.069
KIIELMNKIFTIFKSGE [YML103C/NUP188] | 3.01 ± 0.08 | 2.22 ± 0.083 | 1.79 ± 0.11 | 2.8 ± 0.12
KILEQFEYVLYPSKTLK [FAS2] | 3.01 ± 0.078 | 2.93 ± 0.069 | 2.97 ± 0.077 | 3.15 ± 0.064
KILPTDIQLKNLFPLKP [SRP68] | 2.41 ± 0.059 | 2.63 ± 0.046 | 2.55 ± 0.043 | 2.53 ± 0.059
KINSWDQVLVKGGEQIS [YJL041W/NSP1] | 2.04 ± 0.087 | 2.56 ± 0.085 | 3.29 ± 0.087 | 2.21 ± 0.073
KIPAVEYFGGESPVDVQ [FAS1] | 2.97 ± 0.13 | 3.4 ± 0.099 | 3.19 ± 0.1 | 3.09 ± 0.092
KIRRAARDLLTRDEKDP [RPS9A] | 2.33 ± 0.08 | 2.49 ± 0.065 | 2.3 ± 0.093 | 2.58 ± 0.078
KISEGSAKPTFSFSKSE [YOR098C/NUP1] | 1.75 ± 0.11 | 1.92 ± 0.17 | 2.11 ± 0.2 | 1.77 ± 0.11
KISFNLRLKLFLYEILS [SRB8] | 1.22 ± 0.066 | 1.26 ± 0.063 | 1.24 ± 0.092 | 1.17 ± 0.048
KIVEIDRHIGCAMSGLT [PUP2] | 1.82 ± 0.07 | 2.32 ± 0.091 | 2 ± 0.14 | 2.17 ± 0.06
KIWSVKDGSNPRTLIGH [RPN14] | 3.12 ± 0.11 | 3.01 ± 0.12 | 2.95 ± 0.14 | 2.96 ± 0.12
KKAEKAARKAEKAKSAG [RPL24A] | 3.34 ± 0.066 | 3.32 ± 0.053 | 3.53 ± 0.046 | 3.48 ± 0.055
KKAVKELYEVDVLKVNT [RPL25] | 3.01 ± 0.069 | 3.09 ± 0.073 | 3.1 ± 0.037 | 3.13 ± 0.049

Sequence | protein stability index (doa10∆) | protein stability index (pdr5∆) | protein stability index (san1∆) | protein stability index (ubr1∆)
KKDSKPAFSFGISNGSE [YLR335W/NUP2] | 3.16 ± 0.067 | 3.12 ± 0.069 | 3.1 ± 0.044 | 3.15 ± 0.058
KKGESEKDASGKPSFVF [YOR098C/NUP1] | 2.19 ± 0.066 | 2.32 ± 0.1 | 2.32 ± 0.15 | 2.23 ± 0.073
KKINAKEKLIGWYHSGP [RPN8] | 2.91 ± 0.085 | 3.13 ± 0.096 | 3.33 ± 0.052 | 3.13 ± 0.06
KKISSFKSLIDEDLLDT [YGL172W/NUP49] | 3.08 ± 0.097 | 3.21 ± 0.079 | 3.12 ± 0.062 | 3.14 ± 0.063
KKLEITSDGALSVMCGC [RPR2] | 2.63 ± 0.047 | 2.82 ± 0.054 | 2.8 ± 0.043 | 2.933 ± 0.029
KKRFDEFMAGFNIISMT [SMC4] | 2.64 ± 0.097 | 2.52 ± 0.11 | 2.87 ± 0.096 | 2.14 ± 0.072
KKSKNGTISKTGKKNKV [SRP14] | 2.93 ± 0.11 | 3.26 ± 0.089 | 3.14 ± 0.059 | 3.51 ± 0.057
KKSKRLDKVGKKKGGKK [LRP1] | 3.16 ± 0.15 | 2.43 ± 0.27 | 2.99 ± 0.12 | 3.24 ± 0.21
KKTRIIPRHLQLAIRND [HTA1] | 2.47 ± 0.088 | 2.69 ± 0.078 | 3.03 ± 0.11 | 2.05 ± 0.081
KKVGITGKYGVRYGSSL [RPL43A] | 3.16 ± 0.065 | 3.28 ± 0.051 | 3.3 ± 0.045 | 3.15 ± 0.033
KKYSSKNKYGEINSEDY [SRP68] | 3.22 ± 0.12 | 2.8 ± 0.18 | 3.34 ± 0.066 | 3.14 ± 0.053
KKYTQNNPLLLIVDVKQ [RPN8] | 1.4 ± 0.068 | 1.31 ± 0.046 | 1.06 ± 0.14 | 1.16 ± 0.048
KLANFFSKKGNEPLSEI [YAR002W/NUP60] | 2.82 ± 0.095 | 3.17 ± 0.076 | 3.14 ± 0.067 | 3.13 ± 0.099
KLCYVLGVEDITLIDSA [RET1] | 1.58 ± 0.12 | 1.73 ± 0.25 | 1.26 ± 0.27 | 1.74 ± 0.07
KLEAEEIPSEDQNEFLL [FAS2] | 2.62 ± 0.13 | 1.75 ± 0.092 | 2.25 ± 0.11 | 3.51 ± 0.16
KLELINRYAYVLSSLMF [LRP1] | 2.21 ± 0.05 | 2.31 ± 0.049 | 1.94 ± 0.064 | 2.65 ± 0.046
KLEYPHTDVSSSLEARY [RPN3] | 2.76 ± 0.066 | 3.01 ± 0.073 | 2.75 ± 0.077 | 2.9 ± 0.086
KLFTTNELMRWPIVQKT [RPN5] | 1.79 ± 0.096 | 1.77 ± 0.078 |  | 1.48 ± 0.044
KLHVAAKLPGHKSLIRS [YGL100W/SEH1] | 1.83 ± 0.11 | 2.03 ± 0.13 |  | 2.33 ± 0.094
KLISAFDDLEVEELPTF [RRP42] | 2.57 ± 0.06 | 2.84 ± 0.05 | 2.5 ± 0.066 | 2.85 ± 0.036
KLKDSKKLFQKKENLTR [YML103C/NUP188] | 2.57 ± 0.12 | 3.3 ± 0.1 | 2.97 ± 0.11 | 3.25 ± 0.1
KLLDSGCENPADVFRRC [SRP72] | 2.46 ± 0.058 | 1.72 ± 0.047 | 2.13 ± 0.1 | 2.16 ± 0.071
KLLKSLKNTKYFQQTTI [PRP8] | 2.12 ± 0.076 | 2.7 ± 0.085 | 2.34 ± 0.068 | 2.59 ± 0.064
KLNDSQRKTVNSDDILS [POP1] | 2.3 ± 0.075 | 1.99 ± 0.1 | 2.38 ± 0.087 | 2.89 ± 0.093
KLNIETMRKISSETDDD [DSN1] | 2.56 ± 0.074 | 2.27 ± 0.13 | 2.77 ± 0.12 | 
